PMC6471057
Where two headings read alike, the source gives them in different places.

Columns and labels:
[1] = target: HLA-E*01:01 on T2E cells (human | human (endogenous in T2)); test: flow cytometry on cells; peptide stabilization on T2E cells (peptide 18 h at 37 °C), washed, without Brefeldin A; HLA-E surface level (mAb 3D12) at 0, 2, 4 and 6 h at 37 °C
[2] = target: HLA-E*01:01 on T2E cells (human | human (endogenous in T2)); test: flow cytometry on cells; peptide stabilization on T2E cells (peptide 18 h at 37 °C), then 1 h with Brefeldin A 10 µg/mL, washed; HLA-E surface level (mAb 3D12) at 0, 2, 4 and 6 h at 37 °C; decrease taken as dissociation of the peptide from HLA-E
[3] = target: HLA-E*01:01 on T2E cells (human | human (endogenous in T2)); test: as above; remark: listed apart in the source

Row | Binder | DT50 (without Brefeldin A) [1] [h] | DT50 (incubation time for 50% of the p:HLA-E complexes to decay, with Brefeldin A) [2] [h] | reduction in HLA-E surface expression after 6 h [3] [%] | DT50 (incubation time for 50% of the p:HLA-E complexes to decay, with Brefeldin A) [3] [h]
1 | VMAPRTLIL [VIL9 peptide] | > 6 | > 6 | 23 | –
2 | DVHDGKVVSTHEQ [DQ13 peptide] | > 6 | > 6 | 1.5 | –
3 | LVDSGAQVSVVHPNL [LNL15 peptide] | > 6 | > 4 | – | < 6
4 | SKGKIYPVGY [SY10 peptide] | > 6 | > 6 | – | –
5 | LGHPDTLNQGEFKEL [LEL15 peptide] | > 6 | > 6 | – | –
